Entries after “also recorded” stand apart in the source; their conditions may differ. Where no end group is shown, it is not given here.
What was measured:
[1] = In vivo biodistribution by fluorescence imaging in nude mice; parameters: species or system mouse; conditions: for fluorescence biodistribution: ~0.25 mg/kg
Protocol: (§1) Immune-compromised nude mice (20-30 g) and normal Sprague-Dawley rats (250-310 g; Charles River Laboratories, St-Constant, QC, Canada) were acclimated for at least 3 days prior to the start of the study. Animals were housed in microisolator cages and were kept on a 12-hr light/dark cycle with constant temperature and humidity. Food and water were provided ad libitum. Stock solutions of various agents and peptides of this invention were diluted in saline (0.9% sodium chloride) prior to use. Saline formulations of FL4247 were prepared in such a way that similar dose levels were achieved based on the body weight of the experimental animals used for the study (i.e. in mg/kg).
(§2) Of the different methods available, imaging with fluorescently-labeled test compounds is particularly useful for assessing the in vivo biodistribution in real time with live animals. Therefore, the biodistribution of FL4247 was followed over time in two nude mice each for two routes of administration: 1) intravenous (I.V.); and 2) intraperitoneal (I.P.). Another imaging experiment was carried out using a Sprague-Darley rat (Charles River Laboratories, St-Constant, QC, Canada) through a tail-vein (I.V.) administration of an FL4247 solution.
The I.V. injection route depicted similar results in both studies even though the imaging sequence parameters were different (study 1=1 image/2 minutes over 30 minutes; study 2=1 image/5 minutes over 60 minutes).
Similar results were obtained in two studies involving the I.P. route of injection. Different imaging parameters were again used (study 1=1 image/2 minutes over 60 minutes; study 2=1 image/5 minutes over 90 minutes). The I.P. injection of FL4247 led to the accumulation of the compound at the level of the head within 5 minutes. […] The distribution of FL4247 over the entire body is complete within 30 minutes accompanied by a slow accumulation of fluorescence in the bladder region.

[2] = In vivo biodistribution by fluorescence imaging in a normal Sprague-Dawley rat
Protocol: as §1, §2
The biodistribution was also assessed using one rat in which FL4247 was injected intravenously (I.V.) through the tail vein. To illustrate the capacity for image contrast, only 10% (one tenth or 1/10) of FL4247 was used with the normal rat (FIG. 9C) as compared to the dosage of FL4247 used for imaging vascular injury in venous thrombosis (see FIG. 10). […] Then the fluorescence became more intense in both kidneys for the next 25 minutes and finally the fluorescence appeared in the bladder for the remainder of the experiment time. Although the head was not imaged during this experiment, ex vivo imaging was carried out at the end of the live-animal protocol with the dissected brain, heart, liver and both kidneys. A small amount of fluorescence was detected in the liver and a much stronger signal (about 10 times) was present in both kidneys.

[3] = tested on: fibrotic tissues of the lung; assay: Fluorescence imaging in bleomycin-induced mouse model of pulmonary fibrosis; format: in vivo
Description: Tissue localization of the representative compound FL4247 containing a collagen-binding hairpin peptide was further examined using a bleomycin-induced mouse model of pulmonary fibrosis. […] This is accompanied by fluorescence localization into generally inflamed tissues in the oral cavities of these mice, which are induced through either mechanical or contact damages. It can therefore be concluded that FL4247 has an affinity for inflamed/fibrosing tissues in vivo, very likely due to specific binding of the collagen-responsive hairpin moiety to newly-secreted collagen enriched in these tissue environments.
Specifically, pulmonary instillation of bleomysin was used to initiate pulmonary fibrosis in a mouse model using immune-compromised nude mice. The objective was to determine if the fluorescent FL4247 compound would localize in fibrotic tissues of the lung induced by bleomycin. […] The imaging data thus obtained confirm that: 1) the fluorescence detected in vivo in the thorax region was indeed coming from the lung and from the heart; and 2) since no fluorescence was detected in the lung and heart of the control mouse, the signal detected in the fibrotic mouse injected with FL4247 is very likely a result of different lung tissues induced by fibrosis. […]

[4] = tested on: abdominal vena cava injured by FeCl3
Description: The application of ferric chloride on venous and arterial vessels was therefore the method used to produce the inflamed vasculature in the animal model. The carotid artery (arterial model) and the abdominal vena cava (venous model) were the chosen vessels for the imaging experiments with injured blood vessels undergong thrombosis.
The FeCl3 rat venous model of thrombosis was generated as described (Wang 2005) with some modifications. Briefly, rats were anesthetized with a 2.5% isoflurane/oxygen mixture and placed on a heat source (35-37° C.). The vena cava was then exposed via a midline incision and the region between the renal and iliolumbar veins was isolated. One minute after drug administration, a piece of filter paper (Gel Blot Paper, GB003, Whatman, Piscataway, N.J., USA; 7 mm diameter) saturated with 10% FeCl3 (EMD Chemicals Inc., Gibbstown, N.J., USA) was placed on the exposed surface of the vena cava and incubated for 3.5 minutes. During the application of FeCl3, the abdominal region was covered with aluminum foil. At the end of the incubation period, the filter paper was removed and the exposed viscera covered with a saline-soaked gauze.
In these imaging experiments, there were also a 30-minute waiting time after introduction of FeCl3 to the exposed vena cava to ensure the development of substantial vascular injury and the deposition of a thrombus.

rat-tail collagen type I = rat-tail collagen type I (Rattus norvegicus, UniProt P02454+P02466); assay: Retention of fluorescent peptide by collagen hydrogels, fluorescence imaging; format: binding; parameters: used together with rat-tail collagen (type I); from tissue; host or cells: rat tail; conditions: pre-formed or pre-mixed collagen hydrogel disks
rat-tail collagen type I, sequence (P02466 86-1125): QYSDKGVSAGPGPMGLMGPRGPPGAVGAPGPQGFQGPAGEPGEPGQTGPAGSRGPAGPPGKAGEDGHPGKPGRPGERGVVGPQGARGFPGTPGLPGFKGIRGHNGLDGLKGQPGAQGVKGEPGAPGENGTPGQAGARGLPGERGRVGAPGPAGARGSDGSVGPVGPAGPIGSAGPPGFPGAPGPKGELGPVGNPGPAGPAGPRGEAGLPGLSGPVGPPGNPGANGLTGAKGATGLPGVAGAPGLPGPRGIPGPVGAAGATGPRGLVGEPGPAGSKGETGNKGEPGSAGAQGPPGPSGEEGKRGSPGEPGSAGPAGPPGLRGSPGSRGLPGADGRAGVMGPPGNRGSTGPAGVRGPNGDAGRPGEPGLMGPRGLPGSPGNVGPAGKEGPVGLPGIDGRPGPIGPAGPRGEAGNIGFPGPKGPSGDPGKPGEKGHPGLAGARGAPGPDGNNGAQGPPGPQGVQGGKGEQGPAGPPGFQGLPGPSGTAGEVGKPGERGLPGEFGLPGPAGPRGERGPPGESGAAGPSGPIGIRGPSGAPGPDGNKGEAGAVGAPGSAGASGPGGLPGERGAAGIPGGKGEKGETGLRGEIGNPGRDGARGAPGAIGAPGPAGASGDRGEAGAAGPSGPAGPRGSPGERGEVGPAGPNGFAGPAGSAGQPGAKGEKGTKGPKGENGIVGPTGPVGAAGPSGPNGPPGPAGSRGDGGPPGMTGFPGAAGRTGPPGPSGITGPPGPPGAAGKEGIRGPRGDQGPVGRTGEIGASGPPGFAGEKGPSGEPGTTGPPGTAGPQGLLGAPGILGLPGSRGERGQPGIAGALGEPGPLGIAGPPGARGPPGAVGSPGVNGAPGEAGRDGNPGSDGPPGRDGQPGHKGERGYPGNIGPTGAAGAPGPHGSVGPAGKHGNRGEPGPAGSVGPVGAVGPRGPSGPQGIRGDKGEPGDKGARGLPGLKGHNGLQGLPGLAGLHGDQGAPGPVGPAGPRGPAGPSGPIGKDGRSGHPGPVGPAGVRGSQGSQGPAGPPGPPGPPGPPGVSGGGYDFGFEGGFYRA
rat-tail collagen type I, sequence (P02454 152-1207): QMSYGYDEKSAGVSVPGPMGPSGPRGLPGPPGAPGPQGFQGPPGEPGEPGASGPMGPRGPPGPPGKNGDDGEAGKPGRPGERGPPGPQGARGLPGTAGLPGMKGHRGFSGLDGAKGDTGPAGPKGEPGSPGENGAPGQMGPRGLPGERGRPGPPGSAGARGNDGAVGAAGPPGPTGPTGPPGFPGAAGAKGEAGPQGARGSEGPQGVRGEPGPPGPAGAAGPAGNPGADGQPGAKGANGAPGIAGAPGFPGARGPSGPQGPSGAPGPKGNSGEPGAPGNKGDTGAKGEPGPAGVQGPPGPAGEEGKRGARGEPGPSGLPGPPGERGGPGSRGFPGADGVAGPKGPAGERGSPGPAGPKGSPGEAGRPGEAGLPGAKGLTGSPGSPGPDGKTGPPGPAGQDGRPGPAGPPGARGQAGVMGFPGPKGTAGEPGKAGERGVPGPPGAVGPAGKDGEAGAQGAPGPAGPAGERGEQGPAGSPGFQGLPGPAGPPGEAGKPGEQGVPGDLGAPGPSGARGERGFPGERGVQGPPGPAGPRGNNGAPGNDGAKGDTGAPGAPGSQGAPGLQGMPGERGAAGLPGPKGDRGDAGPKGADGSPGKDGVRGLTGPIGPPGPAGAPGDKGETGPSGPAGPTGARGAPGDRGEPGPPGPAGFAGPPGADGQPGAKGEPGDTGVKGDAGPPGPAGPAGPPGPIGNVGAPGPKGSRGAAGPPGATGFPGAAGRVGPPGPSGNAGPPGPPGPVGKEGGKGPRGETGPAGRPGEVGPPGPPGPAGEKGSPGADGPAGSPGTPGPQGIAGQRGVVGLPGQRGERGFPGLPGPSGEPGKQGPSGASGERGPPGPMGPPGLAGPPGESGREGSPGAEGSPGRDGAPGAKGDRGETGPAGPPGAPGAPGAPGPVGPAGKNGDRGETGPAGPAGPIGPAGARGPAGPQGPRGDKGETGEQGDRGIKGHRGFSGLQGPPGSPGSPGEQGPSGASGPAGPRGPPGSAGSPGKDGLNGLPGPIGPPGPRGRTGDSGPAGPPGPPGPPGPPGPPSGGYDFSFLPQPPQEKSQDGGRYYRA
Description: Peptide P4247 conjugated to a fluorescent probe, i.e. FL4247 (Table 5), was therefore used together with rat-tail collagen (type I) to assess the binding capacity of CBLH peptides to collagen and to illustrate the potential applications of collagen hydrogels formulated with compounds of this invention. The fluorescent probe, HiLyte Fluor750 (AnaSpec, California) was selected with a maximum absorption at an optical wavelength of 750 nm and with a maximum fluorescence emission at 800 nm. Therefore, the intensity of fluorescence emissions would also be optimal for in vivo imaging of tissue locations with a differential enrichment of the injected fluorescent compound (see Examples 8-10). […] For this first experiment, FL4247 in a hydrogel solution were loaded onto the pre-formed collagen hydrogels and molecular diffusion off FL4247 was followed by fluorescence imaging (FIG. 8A, left image). […] Such FL4247-collagen hydrogel preparations (FIG. 8A, right) were then submerged in a large volume of buffer solutions (e.g. the PBS) and the degree of FL4247 retention by the hydrogels were followed by fluorescence imaging (FIG. 8B). […] However, the observed fluorescence intensity was still restricted close to the center of the hydrogel disks 30 minutes after the FL4247 solution was applied (FIG. 8A, left). […]

With “IRFTDGEWTWDDATKTWTWTEGGC-Fluor750 (not fully specified (C-terminus); printed as IRFTDGEWTWDDATKTWTWTEGGC-Fluor750; also: HiLyte Fluor750 conjugate) [FL4247, peptide P4247 conjugated to fluorescent probe HiLyte Fluor750]” the “time to accumulation at the level of the head” value ([1]; I.P.) was no more than 5 min, the “time to complete distribution over the entire body” value ([1]; I.P.) was no more than 30 min and the fluorescence biodistribution ([1]; I.P.) was “far inferior over time compared to the I.V. injection; also recorded: no specific local accumulation of FL4247 was noted”. For the same substance, the fluorescence biodistribution ([1]; I.V.) was “accumulated rapidly in the head region followed by a slow decrease of fluorescent intensity over time; also recorded: accumulated in the bladder; also recorded: no other organs appeared to accumulate or retain FL4247”, the “fluorescence biodistribution (live and ex vivo imaging)” value ([2]; I.V. tail vein, 0.025 mg/kg) was “differential accumulation in the head region, in the kidneys and in the bladder; also recorded: Nothing was detected in the brain and heart organs” and the “ex vivo signal in both kidneys relative to liver” value ([2]; I.V., end of live-animal protocol) was “about 10 times”. The “decrease of liver fluorescence” value ([2]; I.V., within 5 minutes) was 10 times, the “mice with I.V. injection showing marked fluorescence in the lung” value ([3]; I.V.) was “two out of three mice” and the “fluorescence retention in fibrotic lung” value ([3]; tail vein injection, ~0.5 mg/kg) was “high degree of FL4247 fluorescence was retained in the area of the lung”. For the same substance, the “fluorescence at the injured abdominal vena cava” value ([4]; I.V. 30 minutes after FeCl3 application, ~0.2 mg/kg) was “strong fluorescence signal”, the “signal in dissected thrombus weaker than along injured vasculature” value ([4]; ex vivo imaging, I.V. 30 minutes after FeCl3) was “about 3 times” and the clearance ([4]; rat venous thrombosis model, I.V.) was “rapid clearance of FL4247 via the kidneys to the bladder”. For the same substance, the “diffusion in / retention by collagen hydrogels (fluorescence)” value (rat-tail collagen type I) was “significantly retarded the diffusion of FL4247 in the gel matrix; also recorded: could resist outward diffusion into buffer solutions”.

Source: patent US20160168210A1, “DERIVATIVES OF COLLAGEN-BINDING HAIRPIN PEPTIDES” (NATIONAL RESEARCH COUNCIL OF CANADA, priority 2012, published 2016)
